Reference: patent US11130793B2, “GLP-1/GLP-2 dual agonists” (Zealand Pharma A/S, priority 2016, dated 2021)
Square brackets hold non-standard residues; d marks the D form. Aib = CC(C)(N)C(=O)O

Columns and labels:
[1] = target: T1, human GLP-2 receptor (hGLP2-R) (human, UniProt O95838); test: cell-based or functional assay
T1 sequence: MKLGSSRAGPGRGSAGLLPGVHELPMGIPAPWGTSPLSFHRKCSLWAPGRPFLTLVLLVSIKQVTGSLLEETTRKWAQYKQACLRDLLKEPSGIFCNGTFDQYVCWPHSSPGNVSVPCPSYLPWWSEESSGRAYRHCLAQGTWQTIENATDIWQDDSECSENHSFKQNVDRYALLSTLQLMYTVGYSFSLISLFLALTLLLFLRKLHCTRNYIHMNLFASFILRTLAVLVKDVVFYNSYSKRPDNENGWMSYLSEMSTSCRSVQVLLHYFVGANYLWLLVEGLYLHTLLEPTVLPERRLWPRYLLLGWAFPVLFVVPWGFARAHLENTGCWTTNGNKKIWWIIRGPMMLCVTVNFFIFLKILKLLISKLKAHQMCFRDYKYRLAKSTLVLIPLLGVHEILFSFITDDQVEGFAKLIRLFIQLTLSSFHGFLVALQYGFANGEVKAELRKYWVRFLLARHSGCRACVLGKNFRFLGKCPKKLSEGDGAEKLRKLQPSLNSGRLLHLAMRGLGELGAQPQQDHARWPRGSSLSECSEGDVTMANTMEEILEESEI

[2] = target: human glucagon-like peptide 1 receptor (GLP-1R) (human, UniProt P43220); test: cell-based or functional assay

Binder	EC50 GLP-2 (nM); cAMP AlphaScreen [1]	EC50 GLP-1 (nM); cAMP AlphaScreen [2]
H-H[Aib]EGSFTSELATILDEQAARDFIAWLYRHKITD-OH (not fully specified; printed as Hy-H[Aib]EGSFTSELATILDEQAARDFIAWLYRHKITD-OH) [Compound 30]	0.034 nM	0.1 nM
H-H[Aib]EGSFTSELATILDGKAARDFIAWLIAHKITD-OH (SMILES CC[C@H](C)[C@H](NC(=O)[C@H](CC(C)C)NC(=O)[C@H](Cc1c[nH]c2ccccc12)NC(=O)[C@H](C)NC(=O)[C@@H](NC(=O)[C@H](Cc1ccccc1)NC(=O)[C@H](CC(=O)O)NC(=O)[C@H](CCCNC(=N)N)NC(=O)[C@H](C)NC(=O)[C@H](C)NC(=O)[C@H](CCCCN)NC(=O)CNC(=O)[C@H](CC(=O)O)NC(=O)[C@H](CC(C)C)NC(=O)[C@@H](NC(=O)[C@@H](NC(=O)[C@H](C)NC(=O)[C@H](CC(C)C)NC(=O)[C@H](CCC(=O)O)NC(=O)[C@H](CO)NC(=O)[C@@H](NC(=O)[C@H](Cc1ccccc1)NC(=O)[C@H](CO)NC(=O)CNC(=O)[C@H](CCC(=O)O)NC(=O)C(C)(C)NC(=O)[C@@H](N)Cc1c[nH]cn1)[C@@H](C)O)[C@@H](C)O)[C@@H](C)CC)[C@@H](C)CC)C(=O)N[C@@H](C)C(=O)N[C@@H](Cc1c[nH]cn1)C(=O)N[C@@H](CCCCN)C(=O)N[C@H](C(=O)N[C@H](C(=O)N[C@@H](CC(=O)O)C(=O)O)[C@@H](C)O)[C@@H](C)CC) [Compound 31]	0.078 nM	0.02 nM
H-H[Aib]EGTFSSELATILDGKAARDFIAWLIAHKITD-OH (SMILES CC[C@H](C)[C@H](NC(=O)[C@H](CC(C)C)NC(=O)[C@H](Cc1c[nH]c2ccccc12)NC(=O)[C@H](C)NC(=O)[C@@H](NC(=O)[C@H](Cc1ccccc1)NC(=O)[C@H](CC(=O)O)NC(=O)[C@H](CCCNC(=N)N)NC(=O)[C@H](C)NC(=O)[C@H](C)NC(=O)[C@H](CCCCN)NC(=O)CNC(=O)[C@H](CC(=O)O)NC(=O)[C@H](CC(C)C)NC(=O)[C@@H](NC(=O)[C@@H](NC(=O)[C@H](C)NC(=O)[C@H](CC(C)C)NC(=O)[C@H](CCC(=O)O)NC(=O)[C@H](CO)NC(=O)[C@H](CO)NC(=O)[C@H](Cc1ccccc1)NC(=O)[C@@H](NC(=O)CNC(=O)[C@H](CCC(=O)O)NC(=O)C(C)(C)NC(=O)[C@@H](N)Cc1c[nH]cn1)[C@@H](C)O)[C@@H](C)O)[C@@H](C)CC)[C@@H](C)CC)C(=O)N[C@@H](C)C(=O)N[C@@H](Cc1c[nH]cn1)C(=O)N[C@@H](CCCCN)C(=O)N[C@H](C(=O)N[C@H](C(=O)N[C@@H](CC(=O)O)C(=O)O)[C@@H](C)O)[C@@H](C)CC) [Compound 32]	0.15 nM	0.038 nM
H-H[Aib]EGTFTSELATILDEQAARDFINWLIAHKITD-OH (SMILES CC[C@H](C)[C@H](NC(=O)[C@H](CC(C)C)NC(=O)[C@H](Cc1c[nH]c2ccccc12)NC(=O)[C@H](CC(N)=O)NC(=O)[C@@H](NC(=O)[C@H](Cc1ccccc1)NC(=O)[C@H](CC(=O)O)NC(=O)[C@H](CCCNC(=N)N)NC(=O)[C@H](C)NC(=O)[C@H](C)NC(=O)[C@H](CCC(N)=O)NC(=O)[C@H](CCC(=O)O)NC(=O)[C@H](CC(=O)O)NC(=O)[C@H](CC(C)C)NC(=O)[C@@H](NC(=O)[C@@H](NC(=O)[C@H](C)NC(=O)[C@H](CC(C)C)NC(=O)[C@H](CCC(=O)O)NC(=O)[C@H](CO)NC(=O)[C@@H](NC(=O)[C@H](Cc1ccccc1)NC(=O)[C@@H](NC(=O)CNC(=O)[C@H](CCC(=O)O)NC(=O)C(C)(C)NC(=O)[C@@H](N)Cc1c[nH]cn1)[C@@H](C)O)[C@@H](C)O)[C@@H](C)O)[C@@H](C)CC)[C@@H](C)CC)C(=O)N[C@@H](C)C(=O)N[C@@H](Cc1c[nH]cn1)C(=O)N[C@@H](CCCCN)C(=O)N[C@H](C(=O)N[C@H](C(=O)N[C@@H](CC(=O)O)C(=O)O)[C@@H](C)O)[C@@H](C)CC) [Compound 33]	0.041 nM	0.004 nM
